For data set [1], the target named is LEDGF/p75 93-226 (human, UniProt O75475 93-226). The data set is described as follows: EMSA. On the technique in general: Mobility shift assays separate free from complexed probe on a gel.
The target of data set [2] is T1, LEDGF/p75 wild type (human, UniProt O75475 1-530). Briefly: EMSA.
Data set [3] concerns the target T1, LEDGF/p75 wild type. Briefly: SPR. (In SPR one partner is held on a chip, and binding of the other changes the refractive index at the surface.)
The target in data set [4] is T1, LEDGF/p75 wild type. Briefly: EMSA. This is another data set of the same source.
Data set [5] has as its target LEDGF/p75 1-116 (PWWP domain) (human, UniProt O75475 1-116). The data set is described as follows: EMSA.
The target in data set [6] is LEDGF/p75 347-530 (IBD fragment) (human, UniProt O75475 347-530). Briefly: EMSA.
Sequence of LEDGF/p75 347-530 (IBD fragment) (O75475 347-530): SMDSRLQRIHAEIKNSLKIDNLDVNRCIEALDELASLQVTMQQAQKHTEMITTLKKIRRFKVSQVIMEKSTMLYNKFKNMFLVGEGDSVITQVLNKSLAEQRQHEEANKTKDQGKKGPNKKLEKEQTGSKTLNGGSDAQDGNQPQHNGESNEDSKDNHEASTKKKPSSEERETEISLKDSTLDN
Data set [7] deals with T1, LEDGF/p75 wild type. Briefly: SPR. The source holds these as a separate data set.
Data set [8] has as its target MutL5 (human, UniProt O75475 1-530, R194A;G195A;R196A). The data set is described as follows: SPR.
The target in data set [9] is MutL4 (human, UniProt O75475 1-530, R180A;G181A;R182A). The data set is described as follows: SPR.
Sequence of MutL4 (O75475 whole entry R180A/G181A/R182A): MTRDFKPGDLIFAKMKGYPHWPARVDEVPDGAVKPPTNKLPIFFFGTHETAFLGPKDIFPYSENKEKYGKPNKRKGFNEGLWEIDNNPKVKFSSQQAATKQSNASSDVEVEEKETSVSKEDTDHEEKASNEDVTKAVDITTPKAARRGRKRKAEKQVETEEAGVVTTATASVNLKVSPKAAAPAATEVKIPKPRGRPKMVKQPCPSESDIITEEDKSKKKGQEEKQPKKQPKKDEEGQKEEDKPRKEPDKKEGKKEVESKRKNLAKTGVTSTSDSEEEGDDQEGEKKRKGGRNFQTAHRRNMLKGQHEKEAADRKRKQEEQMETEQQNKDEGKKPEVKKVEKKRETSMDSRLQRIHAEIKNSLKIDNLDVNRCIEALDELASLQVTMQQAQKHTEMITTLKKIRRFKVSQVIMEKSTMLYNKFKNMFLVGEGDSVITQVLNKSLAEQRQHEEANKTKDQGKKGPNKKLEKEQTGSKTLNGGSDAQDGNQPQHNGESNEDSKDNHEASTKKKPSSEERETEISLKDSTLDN
For data set [10], the target named is MutL3 (human, UniProt O75475 1-530, R180A;G181A;R182A;R194A;G195A;R196A). Briefly: SPR.
Sequence of MutL3 (O75475 whole entry R180A/G181A/R182A/R194A/G195A/R196A): as the sequence (O75475 whole entry R180A/G181A/R182A) above, with R194A, G195A, R196A counted along it

T1 sequence (O75475 whole entry): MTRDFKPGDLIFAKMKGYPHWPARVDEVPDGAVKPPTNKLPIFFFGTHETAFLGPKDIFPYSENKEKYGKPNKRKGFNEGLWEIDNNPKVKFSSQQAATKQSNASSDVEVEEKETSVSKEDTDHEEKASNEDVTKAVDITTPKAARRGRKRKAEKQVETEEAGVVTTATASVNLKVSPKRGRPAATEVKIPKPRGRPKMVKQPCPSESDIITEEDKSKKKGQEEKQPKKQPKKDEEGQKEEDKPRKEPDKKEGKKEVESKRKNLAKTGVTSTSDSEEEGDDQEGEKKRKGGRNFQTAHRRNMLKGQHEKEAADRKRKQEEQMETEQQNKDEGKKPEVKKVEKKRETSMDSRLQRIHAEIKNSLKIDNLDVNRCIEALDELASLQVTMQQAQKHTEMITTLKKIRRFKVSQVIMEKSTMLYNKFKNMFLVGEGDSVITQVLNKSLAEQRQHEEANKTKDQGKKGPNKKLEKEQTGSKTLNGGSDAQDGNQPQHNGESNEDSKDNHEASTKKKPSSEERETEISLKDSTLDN
Sequence of LEDGF/p75 93-226 (O75475 93-226): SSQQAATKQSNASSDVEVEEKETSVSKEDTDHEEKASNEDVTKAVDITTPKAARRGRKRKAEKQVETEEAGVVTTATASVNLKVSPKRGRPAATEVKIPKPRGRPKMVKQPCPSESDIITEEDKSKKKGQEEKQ
Sequence of LEDGF/p75 1-116 (PWWP domain) (O75475 1-116): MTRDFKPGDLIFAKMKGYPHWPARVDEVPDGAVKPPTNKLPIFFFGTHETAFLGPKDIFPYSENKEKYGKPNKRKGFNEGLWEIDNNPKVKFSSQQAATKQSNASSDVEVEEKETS
Sequence of MutL5 (O75475 whole entry R194A/G195A/R196A): as the sequence (O75475 whole entry R180A/G181A/R182A) above, with A180R, A181G, A182R, R194A, G195A, R196A counted along it

B1: HSE EMSA duplex (AE1197/AE1198) (dsDNA)
DNA 1: TTAACGAGAGAAGGTTCCAGA
DNA 2: TCTGGAACCTTCTCTCGTTAA
As for B1, the binding result in data set [1] and in [2] was “binds” each time.

B2: HSE SPR duplex (AE2019/AE1198) (dsDNA)
DNA 1: GATTTAACGAGAGAAGGTTCCAGA
DNA 2: TCTGGAACCTTCTCTCGTTAA
On to B2, for which the binding result in data set [3] was “binds”.

B3: Mut2 EMSA duplex (AE2001/AE2002) (dsDNA)
DNA 1: TTAACGAGATAATTTTACAGA
DNA 2: TCTGTAAAATTATCTCGTTAA
As for B3, the binding result in data set [1] and in data set [2] was “binds” each time.

B4: Mut1 EMSA duplex (AE1199/AE2000) (dsDNA)
DNA 1: TTAACTAAATAAATTTTAAAA
DNA 2: TTTTAAAATTTATTTAGTTAA
Take B4: the binding result in data set [4] is recorded as “binds”; in [5] it was “no binding”; in data set [6], “no binding”.

B5: Mut2 SPR duplex (AE2043/AE2002) (dsDNA)
DNA 1: GATTTAACGAGATAATTTTACAGA
DNA 2: TCTGTAAAATTATCTCGTTAA
As for B5, the binding result in [3] is given as “binds”.

B6: Mut1 SPR duplex (AE2042/AE2000) (dsDNA)
DNA 1: GATTTAACTAAATAAATTTTAAAA
DNA 2: TTTTAAAATTTATTTAGTTAA
B6: the binding signal is 100 % of WT stably bound in [7], ~13 % of WT stably bound in [8], ~45 % of WT stably bound in [9] and ~7 % of WT stably bound in [10].

The values above are taken from PMC1405818.
